# Reference: the supplement of paper PMC7877785
# ± gives the uncertainty stated by the source.
# Assay: self-splicing fitness, log relative to wild type (ln ratio); higher = more splicing; Tetrahymena group I intron in knt gene, E. coli kanamycin selection, DiMSum; sequences stand for … in CUCUCU…GGAGGGAAAAGUUAUCAGGCAUGCACCUGGUAGCUAGUCUUUAAACCAAUAGAUUGCAUCGGUUUAAAAGGCAAGACCGUCAAAUUGCGGGAAAGGGGUCAACAGCCGUUCAGUACCAAGUCUCAGGGGAAACUUUGAGAUGGCCUUGCAAAGGGUAUGGUAAUAAGCUGACGGACAUGGUCCUAACCACGCAGCCAAGUCCUAAGUCAACAGAUCUUCUGUUGAUAUGGAUGCAGUUCACAGACUAAAUGUCGGUCGGGGAAGAUGUAUUCUUCUCAUAAGAUAUAGUCGGACCUCUCCUUAAUGGGAGCUAGCGGAUGAAGUGAUGCAACACUGGAGCCGCUGGGAACUAAUUUGUAUGCGAAAGUAUAUUGAUUAGUUUUGGAGUACUCGUGGUCG
# How it was run: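 DiMSum derived fitness as the error-weighted combination of fold changes across replicates, kanamycin versus no kanamycin, normalised to wild type. E. coli BL21(DE3) held the library, which randomised all eight P1ex-region intron nucleotides within the knt kanamycin-resistance gene on pET-22b(+). Six replicate transformations grew overnight at 37°C or 30°C on LB agar with or without 25 μg/mL kanamycin, also containing 100 μg/mL carbenicillin, 50 μM IPTG and 0.2% rhamnose, and pooled colonies were amplicon-sequenced on an Illumina HiSeq 2500.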
Sequence,self-splicing fitness (ln) (30 °C),self-splicing fitness (ln) (37 °C)
UAAGAGCAAUAUUACGUGGG,-3.82 ± 0.42,-2.68 ± 0.27
UAAUAGCAAUAUUACGAAAG,-1.92 ± 0.19,-2.03 ± 0.31
UAAUAGCAAUAUUACGACAG,-2.3 ± 0.19,-0.262 ± 0.17
UAAUAGCAAUAUUACGACCA,-0.451 ± 0.2,0.216 ± 0.31
UAAUAGCAAUAUUACGACCU,-1.69 ± 0.15,-0.4 ± 0.15
UAAUAGCAAUAUUACGAGCU,-3.02 ± 0.29,-1.79 ± 0.3
UAAUAGCAAUAUUACGCAAA,-2.03 ± 0.18,-1.27 ± 0.15
UAAUAGCAAUAUUACGCGGG,-3.18 ± 0.21,-1.65 ± 0.2
UAAUAGCAAUAUUACGCUAA,-2.11 ± 0.27,-1.39 ± 0.19
UAAUAGCAAUAUUACGGAAA,,-2.44 ± 0.26
UAAUAGCAAUAUUACGGAUA,-1.97 ± 0.17,-1.83 ± 0.2
UAAUAGCAAUAUUACGGGCA,-0.899 ± 0.2,-0.61 ± 0.19
UAAUAGCAAUAUUACGGUAC,-3.69 ± 0.43,-2.37 ± 0.37
UAAUAGCAAUAUUACGGUUA,-0.888 ± 0.11,-0.925 ± 0.091
UAAUAGCAAUAUUACGUCCG,-0.913 ± 0.23,-0.835 ± 0.2
UAAUAGCAAUAUUACGUCUU,-3.1 ± 0.17,-1.1 ± 0.11
UAAUAGCAAUAUUACGUGCU,-1.98 ± 0.1,-0.994 ± 0.1
UAAUAGCAAUAUUACGUUAG,-1.84 ± 0.094,-1.13 ± 0.12
UACAAGCAAUAUUACGAACA,-1.14 ± 0.11,-0.734 ± 0.097
UACAAGCAAUAUUACGAAGC,-3.39 ± 0.23,-2.74 ± 0.26
UACAAGCAAUAUUACGAAUA,-1.56 ± 0.087,-0.567 ± 0.1
UACAAGCAAUAUUACGACAG,-1.15 ± 0.092,-0.241 ± 0.11
UACAAGCAAUAUUACGACGC,-2.93 ± 0.25,-1.67 ± 0.23
UACAAGCAAUAUUACGACUG,-0.079 ± 0.063,0.278 ± 0.092
UACAAGCAAUAUUACGAGCA,-0.289 ± 0.067,-0.0424 ± 0.075

Sequence,self-splicing fitness (ln) (30 °C),self-splicing fitness (ln) (37 °C)
UACAAGCAAUAUUACGAGUU,-2.14 ± 0.069,-0.96 ± 0.074
UACAAGCAAUAUUACGCCAU,-3.15 ± 0.17,-2.62 ± 0.22
UACAAGCAAUAUUACGCCCC,-2.04 ± 0.49,
UACAAGCAAUAUUACGCGUC,-2.06 ± 0.1,-1.23 ± 0.14
UACAAGCAAUAUUACGCUCA,-0.545 ± 0.087,-0.0026 ± 0.12
UACAAGCAAUAUUACGCUGA,-2.32 ± 0.13,-1.78 ± 0.13
UACAAGCAAUAUUACGGAAA,-2.07 ± 0.24,-1.99 ± 0.27
UACAAGCAAUAUUACGGCAU,-1.49 ± 0.068,-0.705 ± 0.072
UACAAGCAAUAUUACGGCCC,-1.69 ± 0.31,-1.35 ± 0.44
UACAAGCAAUAUUACGGCCU,-1.09 ± 0.094,-0.547 ± 0.13
UACAAGCAAUAUUACGGCUU,-3.99 ± 0.16,-2.37 ± 0.15
UACAAGCAAUAUUACGGGAA,-2.41 ± 0.12,-1.6 ± 0.097
UACAAGCAAUAUUACGGGGA,-1.5 ± 0.12,-1.09 ± 0.13
UACAAGCAAUAUUACGGUCG,-0.0495 ± 0.068,-0.0985 ± 0.1
UACAAGCAAUAUUACGGUCU,-1.52 ± 0.052,-0.534 ± 0.065
UACAAGCAAUAUUACGGUGA,-1.28 ± 0.082,-0.89 ± 0.1
UACAAGCAAUAUUACGUCCC,-1.25 ± 0.39,-1.58 ± 0.42
UACAAGCAAUAUUACGUCCG,-0.564 ± 0.068,-0.0254 ± 0.091
UACAAGCAAUAUUACGUGAC,-3.89 ± 0.18,-1.85 ± 0.1
UACAAGCAAUAUUACGUUUU,-3.05 ± 0.11,-2.32 ± 0.12
UACCAGCAAUAUUACGAUCG,-0.0679 ± 0.046,-0.31 ± 0.06
UACCAGCAAUAUUACGCCUC,-2.32 ± 0.19,-0.554 ± 0.18
UACCAGCAAUAUUACGCGGU,-4.05 ± 0.17,-3.47 ± 0.2
UACCAGCAAUAUUACGGAAU,-2.32 ± 0.093,-1.5 ± 0.1
UACCAGCAAUAUUACGGAGC,-3 ± 0.15,-3.22 ± 0.27

Sequence,self-splicing fitness (ln) (30 °C),self-splicing fitness (ln) (37 °C)
UACCAGCAAUAUUACGGAUC,-1.46 ± 0.058,0.242 ± 0.084
UACCAGCAAUAUUACGGGCC,-2.22 ± 0.1,-1.2 ± 0.11
UACCAGCAAUAUUACGGGCG,-0.359 ± 0.072,-0.277 ± 0.079
UACCAGCAAUAUUACGGGUC,-2.46 ± 0.13,-1.99 ± 0.18
UACCAGCAAUAUUACGGUCG,-0.769 ± 0.064,0.485 ± 0.091
UACCAGCAAUAUUACGGUUU,-0.896 ± 0.056,-0.463 ± 0.065
UACCAGCAAUAUUACGUCAU,-2.21 ± 0.085,-1.52 ± 0.088
UACCAGCAAUAUUACGUGAC,-3.12 ± 0.13,-1.12 ± 0.14
UACCAGCAAUAUUACGUUAA,-1.36 ± 0.073,-0.903 ± 0.081
UACCAGCAAUAUUACGUUUC,-4 ± 0.28,-2.56 ± 0.22
UACGAGCAAUAUUACGACUU,-2.11 ± 0.13,-0.959 ± 0.15
UACGAGCAAUAUUACGAGCU,-2.28 ± 0.33,
UACGAGCAAUAUUACGAUCC,-3.23 ± 0.33,
UACGAGCAAUAUUACGAUCG,-0.594 ± 0.1,-0.663 ± 0.13
UACGAGCAAUAUUACGCAAG,-2.57 ± 0.15,-2.03 ± 0.35
UACGAGCAAUAUUACGCACC,-1.91 ± 0.39,
UACGAGCAAUAUUACGCAGG,-2.88 ± 0.21,-2.64 ± 0.22
UACGAGCAAUAUUACGCCCC,-2.16 ± 0.44,
UACGAGCAAUAUUACGCCGG,-2.84 ± 0.29,0.206 ± 0.22
UACGAGCAAUAUUACGCGUC,-1.91 ± 0.13,-2.3 ± 0.19
UACGAGCAAUAUUACGCGUU,-1.67 ± 0.2,-3.64 ± 0.42
UACGAGCAAUAUUACGCUAA,-2.89 ± 0.42,-2.85 ± 0.35
UACGAGCAAUAUUACGCUGU,-2.78 ± 0.28,-1.47 ± 0.39
UACGAGCAAUAUUACGCUUU,-4.61 ± 0.42,-2.4 ± 0.22
UACGAGCAAUAUUACGGAGU,,-2.68 ± 0.23

Sequence,self-splicing fitness (ln) (30 °C),self-splicing fitness (ln) (37 °C)
UACGAGCAAUAUUACGGCGG,-1.79 ± 0.13,-1.08 ± 0.17
UACGAGCAAUAUUACGGGCA,-1.77 ± 0.089,-0.925 ± 0.087
UACGAGCAAUAUUACGUAGA,-3.47 ± 0.17,-2.77 ± 0.29
UACGAGCAAUAUUACGUCGG,-3.5 ± 0.23,-1.38 ± 0.15
UACGAGCAAUAUUACGUUUG,-3.84 ± 0.27,-1.94 ± 0.17
UACUAGCAAUAUUACGAUUA,-0.867 ± 0.13,0.62 ± 0.16
UACUAGCAAUAUUACGAUUC,-2.3 ± 0.23,-1.76 ± 0.43
UACUAGCAAUAUUACGCACA,-0.646 ± 0.079,0.021 ± 0.092
UACUAGCAAUAUUACGCCAU,-2.57 ± 0.26,-3.06 ± 0.33
UACUAGCAAUAUUACGCCGA,-1.25 ± 0.19,-0.403 ± 0.17
UACUAGCAAUAUUACGCCUU,-1.93 ± 0.15,-0.434 ± 0.13
UACUAGCAAUAUUACGCGCC,,-1.37 ± 0.37
UACUAGCAAUAUUACGGGCA,-0.178 ± 0.071,0.53 ± 0.11
UACUAGCAAUAUUACGGUUC,-2.29 ± 0.29,-1.63 ± 0.39
UACUAGCAAUAUUACGUAAC,-2.8 ± 0.17,-3.33 ± 0.42
UACUAGCAAUAUUACGUACA,-1.56 ± 0.12,-0.448 ± 0.13
UACUAGCAAUAUUACGUAGG,-4.09 ± 0.35,-1.69 ± 0.22
UACUAGCAAUAUUACGUAGU,-3.62 ± 0.22,-1.65 ± 0.25
UACUAGCAAUAUUACGUAUC,-2.06 ± 0.2,-2.9 ± 0.4
UACUAGCAAUAUUACGUCGC,-4.8 ± 0.46,-3.62 ± 0.24
UACUAGCAAUAUUACGUCUC,-3.59 ± 0.32,-2.93 ± 0.31
UACUAGCAAUAUUACGUUAG,-3.54 ± 0.19,-2.66 ± 0.23
